Experimental data published in patent publication US20230165970A1, “COMPOSITIONS AND METHODS FOR THE TREATMENT OF BACTERIAL INFECTIONS” (priority 2017, published 2023).

B1: Conjugate 4 (conjugate)
chain: PRGPTIKPCPPCKCPAPNLLGGPSVFIFPPKIKDVLMISLSPIVTCVVVDVSEDDPDVQISWFVNNVEVHTAQTQTHREDYNSTLRVVSALPIQHQDWMSGKEFKCKVNNKDLPAPIERTISKPKGSVRAPQVYVLPPPEEEMTKKQVTLTCMVTDFMPEDIYVEWTNNGKTELNYKNTEPVLDSDGSYFMYSKLRVEKKNWVERNSYSCSVVHEGLHNHHTTKSFSRTPGKHHHHHH
modifications: cyclised or stapled
B2: Conjugate 15 (conjugate)
chain: B1 chain
modifications: cyclised or stapled
B3: Conjugate 26: "Conjugate of m-IgG2a(His)6 Fc-3 (Int-13)"; SEQ ID NO: 6, procedure uses Int-10, DAR=2/Fc dimer (conjugate)
chain: B1 chain
modifications: conjugated small molecule Int-13, DAR 2

Experiments:
Test in all cases: MIC assay (broth microdilution, RPMI + 5% LB)
Assay type in all cases: cell-based
[1] = test system: Escherichia coli BW25113 + pUC18-mcr-1; conditions: assay media RPMI A
Excerpt: An mcr-1 expression plasmid was constructed (GenScript; Piscataway, N.J.) using the pUC18 high copy number plasmid (Yanisch-Perron, et al., 1985). A 1649-bp fragment was synthesized containing, in order from 5′ to 3′: EcoR1 restriction site (5′-GAATTC-3), a ribosomal binding site (5′-AGGAGG-3′), a 5-bp native start codon upstream sequence (5′-TTCTC-3′) from the mcr-1-bearing plasmid pHNSHP45 (Liu, Y Y, et al., 2015; GenBank Accession #KP347127), the 1626-bp mcr-1 open reading frame with stop codon (“orf00073” of GenBank Accession #KP347127), and finally an Xba1 restriction site sequence (5′-TCTAGA-3′). […] The pUC18-mcr-1 plasmid was transformed into chemically-competent E. coli BW25113 (Coli Genetic Stock Center #7636) as described previously (Chung, et al., PNAS. 1989), recovered for 1 h shaking at 37° C. in Super Optimal broth with Catabolite repression (SOC) media and then aliquots were plated on Luria-Bertani (LB) media containing 100 μg/mL of carbenicillin. Putative transformant colonies were then verified in MIC assays.
(§1) Bacterial strains were stored as glycerol stocks at −80° C. prior to culturing on cation-adjusted Mueller-Hinton agar (MHA; BD cat. no. 211438) at 37° C. Antibacterial activity was assessed against a panel consisting of Escherichia coli, Acinetobacter baumannii, Pseudomonas aeruginosa, and Klebsiella pneumoniae strains (see Table 2).
Briefly, stock solutions of all antibacterial agents were prepared fresh in appropriate solvents (i.e. PBS, pH 7.4. DMSO, DI, etc.). Stock concentrations were made at 50× the highest final assay concentration and serially diluted 2-fold, 8 or 12 times in a 96-well PCR plate (VWR cat. no. 83007-374). Bacterial cell suspensions generated from MHA plate cultures were prepared in 0.85% saline and adjusted to ˜0.1 OD600 nm. […] Later, conjugates 16 and 17, and 20-25 were evaluated in RPMI 1640 medium (+) L-glutamine, (+) sodium bicarbonate, pH 7.4 (“RPMI B”; Gibco, cat. no. 11875-085) as has been described as a more physiologically-relevant media for susceptibility testing of antibacterial compounds. […]

[2] = test system: Escherichia coli BW25113 4X-12 (COL-R; PmrB-Leu10Pro); conditions: assay media RPMI A
Experimental: as §1
(§2) Briefly, stock solutions of all antibacterial agents were prepared fresh in appropriate solvents (i.e. PBS, pH 7.4. DMSO, DI, etc.). Stock concentrations were made at 50× the highest final assay concentration and serially diluted 2-fold, 8 or 12 times in a 96-well PCR plate (VWR cat. no. 83007-374). Bacterial cell suspensions generated from MHA plate cultures were prepared in 0.85% saline and adjusted to ˜0.1 OD600 nm. Next, cell suspensions were diluted 1:200 in RPMI containing 5% Luria Broth (LB) to improve bacterial growth (BD Difco, cat. no. 244620) to a concentration of ˜5×10^5 CFU (colony-forming units)/mL. […] Later, conjugates 16 and 17, and 20-25 were evaluated in RPMI 1640 medium (+) L-glutamine, (+) sodium bicarbonate, pH 7.4 (“RPMI B”; Gibco, cat. no. 11875-085) as has been described as a more physiologically-relevant media for susceptibility testing of antibacterial compounds. Dorschner R A et al., The mammalian ionic environment dictates microbial susceptibility to antimicrobial defense peptides. FASEB J. 20(1):35-42 […]. Ninety-eight microliters of each cell suspension in MHB were added to test wells in a 96-well assay plate (Costar cat. no. 3370). A Beckman Multimek 96 liquid handling robot was used to dispense 2 μL of each 50× stock compound into the plate containing 98 μL of each strain in MHB (2% final solvent concentration). E. coli strains BW25113 and ATCC 25922 were run in the presence and absence of 50% heat-inactivated fetal bovine serum (FBS; Sigma, cat. no. F4135-100 mL). Plates were mixed by shaking then incubated at 37° C. overnight (16-20 h).

[3] = test system: Pseudomonas aeruginosa PAO1; conditions: assay media RPMI A
Experimental: as §1, §2

[4] = test system: Acinetobacter baumannii AB5075; conditions: assay media RPMI A
Experimental: as §1
(§3) Briefly, stock solutions of all antibacterial agents were prepared fresh in appropriate solvents (i.e. PBS, pH 7.4. DMSO, DI, etc.). Stock concentrations were made at 50× the highest final assay concentration and serially diluted 2-fold, 8 or 12 times in a 96-well PCR plate (VWR cat. no. 83007-374). Bacterial cell suspensions generated from MHA plate cultures were prepared in 0.85% saline and adjusted to ˜0.1 OD600 nm. […] Dorschner R A et al., The mammalian ionic environment dictates microbial susceptibility to antimicrobial defense peptides. FASEB J. 20(1):35-42 (2017). Ninety-eight microliters of each cell suspension in MHB were added to test wells in a 96-well assay plate (Costar cat. no. 3370). A Beckman Multimek 96 liquid handling robot was used to dispense 2 μL of each 50× stock compound into the plate containing 98 μL of each strain in MHB (2% final solvent concentration). E. coli strains BW25113 and ATCC 25922 were run in the presence and absence of 50% heat-inactivated fetal bovine serum (FBS; Sigma, cat. no. F4135-100 mL). Plates were mixed by shaking then incubated at 37° C. overnight (16-20 h).

[5] = test system: Acinetobacter baumannii ATCC 19606; conditions: assay media RPMI A
Experimental: as §1, §3

[6] = test system: Escherichia coli ATCC BAA-2469; conditions: assay media RPMI A
Experimental: as §1, §3

Escherichia coli BW25113 = conditions: assay media RPMI A; for MIC Ec BW + FBS: 50% heat-inactivated FBS
[7] = test system: Escherichia coli ATCC 25922; conditions: assay media RPMI A; for MIC Ec 25922 + FBS: 50% heat-inactivated FBS
[8] = test system: Acinetobacter baumannii ATCC 17978; conditions: assay media RPMI A
Experimental: as §1, §2

[9] = test system: Pseudomonas aeruginosa ATCC 27853; conditions: assay media RPMI A
Experimental: as §1, §2

Row | Molecule | MIC Ec BW (mcr-1) [1] | MIC Ec BW 4X-12 (COL-R) [2] | MIC Pa PAO1 [3] | MIC Ab AB5075 [4] | MIC Ab 19606 [5] | MIC Ec 2469 [6] | MIC Ec BW (Escherichia coli BW25113) | MIC Ec BW + FBS (Escherichia coli BW25113) | MIC Ec 25922 [7] | MIC Ec 25922 + FBS [7] | MIC Ab 17978 [8] | MIC Pa 27853 [9]
1 | B1 | >128 µg/mL | >128 µg/mL | 16 µg/mL | 32 µg/mL | 32 µg/mL | >128 µg/mL | 32 µg/mL | 32 µg/mL | >128 µg/mL | 64 µg/mL |  | 
2 | B2 | >128 µg/mL | >128 µg/mL | 16 µg/mL | >128 µg/mL | >128 µg/mL | >128 µg/mL | >128 µg/mL | >128 µg/mL | >128 µg/mL | >128 µg/mL |  | 
3 | B3 | >128 µg/mL | >128 µg/mL | 64 µg/mL | 32 µg/mL | 128 µg/mL | 32 µg/mL | 16 µg/mL | 32 µg/mL | >128 µg/mL | 128 µg/mL | 64 µg/mL | 16 µg/mL
